Experimental data taken from the supplement of paper PMC9170038.

Tested on: MS2 coat protein
Assay: apparent KD of MS2 coat protein; designed switch direction (-1 OFF switch, 1 ON switch): -1; higher = weaker reporter binding
Summary of the method: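 The apparent KD reported per design is the median over clusters of curve fits to normalised cluster fluorescence. The RNA switches were transcribed on Illumina chips by stalled E. coli RNA polymerase. SNAP-549-labelled MS2 coat protein was titrated from 0.7 or 1.5 nM, doubling up to 3 µM, in Tris-HCl pH 7.5 buffer containing KCl, MgCl2, BSA, DTT, tRNA and Tween-20, with no input, 200 uM small-molecule ligand, or an oligonucleotide input.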

[1] = input ligand: microRNA oligo, concentration not stated
[2] = Eterna round: R95, input ligand: microRNA oligo, concentration not stated
[3] = Eterna round: R95, input ligand: FMN 200 uM
[4] = Eterna round: R95, input ligand: none

UUAUUAAUUAAUAUUAUAAGAUCACAUGAGGAUCACCCAUGUCAGGAUAUCAGCUCGUUUAGAGCUGAGAAGGGACAAAUAAUA [ExNG3/15-B2] (Eterna round: R96, puzzle: Exclusion NG 3)
apparent KD of MS2 coat protein (input ligand: FMN 200 uM): 118 nM | apparent KD of MS2 coat protein [1]: 187 nM | apparent KD of MS2 coat protein (input ligand: none): 189 nM

CAUGAUUGGCGAGGAUAUUGAUCUACAUGGCGACGAGAAGGCGCCUGUCACAUGAGGAUCACCCAUGUGAGUCUGGUGAAUGAG [Ex NG1 #85] (Eterna round: R96, puzzle: Exclusion NG 1)
apparent KD of MS2 coat protein (input ligand: FMN 200 uM): 67.2 nM | apparent KD of MS2 coat protein [1]: 25 nM | apparent KD of MS2 coat protein (input ligand: none): 42.6 nM

CAUUUGUGAGGAUAUCAGGUGUGCUAGCGUACUGGUACAUCUGAGAAGGCACAUGAGGAUCACCCAUGUUUCUU [Mat - Exclusion 4 - Mod of JL - D37] (puzzle: Exclusion 4)
apparent KD of MS2 coat protein [2]: 15.9 nM

AAACCGCAAGGAUAUUGUGGCGCUGACAUGAGGAUCACCCAUGUGGUGCUAGUCCCGCUGCGAGAAGGUGUGUAAA [Enesedrave] (puzzle: Exclusion 5)
apparent KD of MS2 coat protein [2]: 12.3 nM

UGCAGACGAGGAUAUGAUUAAUAAUACAUGAGGAUCACCCAUGUAAUACUGAUCUAUGGAUCAGAAGGUGUCUGCA [E5/6-B2] (Eterna round: R97, puzzle: Exclusion 5)
apparent KD of MS2 coat protein (input ligand: FMN 200 uM): 17.7 nM | apparent KD of MS2 coat protein (input ligand: none): 28.3 nM

AGUACUAACACGCCAGUGUUAGUACAAUAAGCUUGUGAAACAUGAGGAUCACCCAUGUCCUCAUAAGCUCGUCUUAU [salish99_TOv2_r3_028] (puzzle: Sensor v3, turn-off variant 2)
apparent KD of MS2 coat protein [3]: 16.9 nM | apparent KD of MS2 coat protein [2]: 677 nM | apparent KD of MS2 coat protein [4]: 15.1 nM

AGCGAAUAGCUAGGAUAUGAGAAUAGAUAGAGCUCAGAAGGAGCACAUGAGGAUCACCCAUGUAAAGUCUUGAGGCUGCGUGGU [Prohibition 16 - Jieux - Exclusion NG 1] (Eterna round: R96, puzzle: Exclusion NG 1)
apparent KD of MS2 coat protein (input ligand: FMN 200 uM): 79.5 nM | apparent KD of MS2 coat protein [1]: 27.2 nM | apparent KD of MS2 coat protein (input ligand: none): 66.3 nM

CUAAAUCAUGUAGGAUAUGCAUAGCAAAGCUAUGCAGAAGGACAUGAGGAUCACCCAUGUCAUUCCGUCUGGAGACAGACGGGA [Mat - Exclusion NG 1 - Mod of JL - D56] (Eterna round: R96, puzzle: Exclusion NG 1)
apparent KD of MS2 coat protein (input ligand: FMN 200 uM): 142 nM | apparent KD of MS2 coat protein [1]: 25 nM | apparent KD of MS2 coat protein (input ligand: none): 32.5 nM

GUCCGGCAUGUAGGAUAUGGAUCCGAUUAGGAUUUAGAAGGACAUGAGGAUCACCCAUGUACAUGUAAUUAGUCAUUACCGGAC [EXclNG1-LROPPY02] (Eterna round: R96, puzzle: Exclusion NG 1)
apparent KD of MS2 coat protein (input ligand: FMN 200 uM): 40.2 nM | apparent KD of MS2 coat protein [1]: 17.8 nM | apparent KD of MS2 coat protein (input ligand: none): 22.2 nM

UUAAAUCAUGUAGGAUAUGCGUGGCGAAGCUAUGCAGAAGGACAUGAGGAUCACCCAUGUUCUAGCGUCUGCGAACAGAUGCAA [Mat - Exclusion NG 1 - Mod of JL - D1] (Eterna round: R96, puzzle: Exclusion NG 1)
apparent KD of MS2 coat protein (input ligand: FMN 200 uM): 120 nM | apparent KD of MS2 coat protein [1]: 12.2 nM | apparent KD of MS2 coat protein (input ligand: none): 16.9 nM

AAUAAUGAACGAGCUUUUUACAUGAGGAUCACCCAUGUCCUCUGCUCGUCUUGUCUUGGGCUUUUUUUGGGUUCGGG [-22.1, -44.7 kcal, A 17%] (Eterna round: R97, puzzle: Sensor, turn-off variant 1)
apparent KD of MS2 coat protein (input ligand: FMN 200 uM): 331 nM | apparent KD of MS2 coat protein (input ligand: none): 338 nM

UAUAUAUAGUAAGGAUAUGUAUUAAUUCUAUAAACAGAAGGUACUGACAUGAGGAUCACCCAUGUUUUAGUGUGGGCAUGUAGA [JMF's solution 82] (Eterna round: R96, puzzle: Exclusion NG 1)
apparent KD of MS2 coat protein [1]: 41.3 nM

UGAGUGCUGCGAGGAUAUACAUGAGGAUCACCCAUGUAAUCGUCUGAGGCAAAGCCUCAGACGAAGUAGAAGGCGCAGUACUCU [Mat - Exclusion NG 2 - Mod of JL - D26] (Eterna round: R96, puzzle: Exclusion NG 2)
apparent KD of MS2 coat protein (input ligand: FMN 200 uM): 15.5 nM | apparent KD of MS2 coat protein [1]: 11.5 nM | apparent KD of MS2 coat protein (input ligand: none): 17.2 nM

AGUACUAUGCGUGCUGACAUGCGUAGUGCAGCAGGUGUUACAUGAGGAUCACCCAUGUCCUCAUUUGCUCGUCUUAU [Mat - Sensor v3 - Turn-off var 2 - D15] (puzzle: Sensor v3, turn-off variant 2)
apparent KD of MS2 coat protein [3]: 75.7 nM | apparent KD of MS2 coat protein [2]: 79.2 nM | apparent KD of MS2 coat protein [4]: 80.4 nM

CUCCUGUAAGGAUAUCUGACAAGUGACGAAAGUCACAGUUCAGAGAAGGUACAUGAGGAUCACCCAUGUAGAAC [Exclusion 4 - Mod Brourd Ex 4-3: 41 v.2] (puzzle: Exclusion 4)
apparent KD of MS2 coat protein [2]: 31 nM

AUUAGUAUCUAGGAUAUCUAGUACAUAGUAUCUAGAGAAGGAGAUACAUGAGGAUCACCCAUGUUCUGUGAUCU [Exclusion 6 - 2:a] (puzzle: Exclusion 6)
apparent KD of MS2 coat protein [2]: 155 nM

AAGACACAUGAGGAUCACCCAUGUGAGGAUAUGCGAUGCUAAGCGUAAGCUUAGUAUCGCAGAAGGCACAAAGG [Salishxclusion 4 - Jieux - Exclusion 1] (Eterna round: R97, puzzle: Exclusion 1)
apparent KD of MS2 coat protein (input ligand: FMN 200 uM): 76.9 nM | apparent KD of MS2 coat protein (input ligand: none): 64 nM

GACAUCGCAGGAUAUUAGGGUUUGUACAUGAGGAUCACCCAUGUUAAUUGGGUUAAUGUUUAAGAAGGGCGGUGUC [JR_EX5_Sub017] (Eterna round: R97, puzzle: Exclusion 5)
apparent KD of MS2 coat protein (input ligand: FMN 200 uM): 528 nM | apparent KD of MS2 coat protein (input ligand: none): 383 nM

CUGAGUUCAGGAUAUACAUGAGGAUCACCCAUGUAAAGUAGCUUGCGUACAGGCAGAUGUAGAAGGGAAUUCGG [Mod of JL 6 - Jieux - Exclusion 3] (Eterna round: R97, puzzle: Exclusion 3)
apparent KD of MS2 coat protein (input ligand: FMN 200 uM): 30.2 nM | apparent KD of MS2 coat protein (input ligand: none): 19 nM

UUAUAUAGGUAGGAUAUCGAUUUUAAUUAAUUUCGAGAAGGGUCAACAUGAGGAUCACCCAUGUCAGCAUGUAU [LRO-Excl6-05-Rocketman] (Eterna round: R97, puzzle: Exclusion 6)
apparent KD of MS2 coat protein (input ligand: FMN 200 uM): 45.6 nM | apparent KD of MS2 coat protein (input ligand: none): 51.4 nM

AACCAGCGAGGAUAUGCUUGCGCGUGUUCUGGUUAUAAUCGACUUGAGGAUCACCCAAGUAGAAGGUGCUGGCG [EX2 #55] (Eterna round: R97, puzzle: Exclusion 2)
apparent KD of MS2 coat protein (input ligand: FMN 200 uM): 360 nM | apparent KD of MS2 coat protein (input ligand: none): 147 nM

AUACGUCAAGUCAGGAUAUAUACCGCGACUACGGCGUAGAAGGGACAUGAGGAUCACCCAUGUAAAAGGGCAAA [Ceerrilaza] (puzzle: Brourd's mod of Exclusion 4)
apparent KD of MS2 coat protein [3]: 37.7 nM | apparent KD of MS2 coat protein [2]: 36.5 nM | apparent KD of MS2 coat protein [4]: 34.5 nM

GCUUGUGGGCAAGGAUAUCCUACGUUGUUCUGGUUCGUGUCUGUCACAUGAGGAUCACCCAUGUGGGAGAAGGUGCAUUUGGUU [Design 60] (Eterna round: R96, puzzle: Exclusion NG 2)
apparent KD of MS2 coat protein (input ligand: FMN 200 uM): 15.4 nM | apparent KD of MS2 coat protein [1]: 12.4 nM | apparent KD of MS2 coat protein (input ligand: none): 17.2 nM

AGUACUAACACGAAAGUGUUAGUACCAUAAGCUUGUGAAACAUGAGGAUCACCCAUGUCCUCAUAAGCUCGUCUUAU [salish99_TOv2_r3_041] (puzzle: Sensor v3, turn-off variant 2)
apparent KD of MS2 coat protein [3]: 18.8 nM | apparent KD of MS2 coat protein [2]: 720 nM | apparent KD of MS2 coat protein [4]: 19.5 nM
